What follows are binders tested against HLA-A*0201 (human) (assay: competitive inhibition of 125I-labelled standard peptide binding to purified HLA, gel filtration; ratio = IC50 standard / IC50 test peptide). Conditions: not given.

Binder	binding affinity ratio
VLVHPQWVL (modifications not checked) [… (PSA, position 49), listing 1 of 2 here]	0.02
VLRKYADKI (modifications not checked) [… (PSM, position 603)]	0.0002
VLVHPQWVL (modifications not checked) [… (Kallikrein, position 53), listing 2 of 2 here]	0.02
VLRMMNDQL (modifications not checked)	0.0001
VMDLPTQEPA (modifications not checked) [… (PSA, position 134)]	0.0001
VISNDVCA (modifications not checked) [VISNDVCA (PSA, position 174)]	0.0001
VLVHPQWVLT (modifications not checked) [… (PSA, position 49), listing 1 of 2 here]	0.0001
VLVHPQWVLT (modifications not checked) [… (Kallikrein, position 53), listing 2 of 2 here]	0.0001
VLLSYPNKT (modifications not checked) [… (PSM, position 115)]	0.0002
VIGTLRGAV (modifications not checked) [… (PSM, position 358)]	0.0002
VATARRPRWL (modifications not checked) [… (PSM, position 12)]	0.0001
VLVHPQWV (modifications not checked) [VLVHPQWV (PSA, position 49)]	0.0001
VLVNEILNHM (modifications not checked) [… (PAP, position 262)]	0.0008
VAYINADSSI (modifications not checked) [… (PSM, position 447)]	0.0001
VLRMMNDQLM (modifications not checked)	0.0003
VILLGRHSL (modifications not checked) [… (PSA, position 68)]	0.0003

Same assay, conditions: remark: other sources report otherwise

Binder	binding affinity ratio
VISNDVCAQV (modifications not checked) [… (PSA, position 174)]	0.0008

These binders were tested against HLA-A*0206 (human) (assay: competition with 125I-labelled standard peptide for purified HLA, gel filtration). Conditions: remark: other sources report otherwise.

Binder	binding affinity ratio (IC50 of standard peptide / IC50 of test peptide)	IC50
PALGTTCYA (modifications not checked) [Kallikrein 146 …]	0.0002	–
PALGTTCYA (modifications not checked) [PSA 142 …]	0.0002	–
RMMNDQLMFL (modifications not checked) [peptide 1126.06 (PSM.662)]	–	40 nM

Same assay, conditions: remark: other sources report otherwise; scale: ratio

Binder	binding affinity ratio
SLHLLSNDM (modifications not checked) [Kallikrein (hK2) peptide … (position 175, 9 amino acids)]	-0.0001
LLRLSEPAELT (modifications not checked) [… (PSA, position 119, 11 amino acids)]	0.0002

The binders below were run against HLA-A*0201 (human) in the same assay as above. Conditions: remark: other sources report otherwise; scale: ratio.

Binder	binding affinity ratio
SLHLLSNDM (modifications not checked) [Kallikrein (hK2) peptide … (position 175, 9 amino acids)]	0.0003
LLRLSEPAELT (modifications not checked) [… (PSA, position 119, 11 amino acids)]	0.0023

The binders below were run against HLA-A*0201 (human) (assay: inhibition of 125I-labelled standard peptide binding to purified HLA-A*0201, gel filtration). Conditions: not given.

Binder	binding affinity ratio (IC50 of standard peptide / IC50 of test peptide)
CIRNKSVILL (modifications not checked)	0.0001
ATQIPSYKKL (modifications not checked) [… (PAP, position 274)]	0.0002
CIRNKSVI (modifications not checked) [CIRNKSVI (PSA, position 62)]	0.0001
CIRNKSVIL (modifications not checked)	0.0003
AVCGGVLV (modifications not checked) [AVCGGVLV (PSA, position 44)]	0.0003
AVKVMDLPT (modifications not checked) [… (PSA, position 131)]	0.0001
CVDLHVISNDV (modifications not checked) [… (PSA, position 169)]	0.0001
CALPERPSL (modifications not checked) [… (PSA, position 230)]	0.0001
CAQVHPQKV (modifications not checked)	0.0002
CAQVHPQKVT (modifications not checked)	0.0001
AVEPDRYVIL (modifications not checked)	0.0002
AVEPDRYVI (modifications not checked)	0.0001
CMTTNSHQGT (modifications not checked) [… (PAP, position 372)]	0.0002

Same assay, conditions: remark: other sources report otherwise

Binder	binding affinity ratio (IC50 of standard peptide / IC50 of test peptide)
CALPEKPAV (modifications not checked) [… (Kallikrein, position 234)]	0.0002

These binders were tested against HLA-A*0201 (human) (assay: inhibition of 125I-labelled probe peptide binding to purified HLA-A*0201, gel filtration). Conditions: not given.

Binder	IC50
LMYSLVHNL (modifications not checked) [PSM.469 …]	< 200 nM
LLLARAASLSL (modifications not checked) [PAP.6 …]	< 200 nM
MLLRLSEPAEL (modifications not checked)	< 200 nM
TLMSAMTNL (modifications not checked) [PAP.112 …]	< 200 nM
MMNDQLMFL (modifications not checked) [PSM.663 …]	< 200 nM

Same assay, conditions: remark: other sources report otherwise

Binder	IC50
SLHLLSNDMCA (modifications not checked) [HuK2.175 …]	< 200 nM
LLQERGVAYI (modifications not checked) [PSM.441 …]	< 200 nM
ALDVYNGLL (modifications not checked) [PAP.299 …]	< 200 nM
ILLWQPIPV (modifications not checked) [PAP.135 …]	< 200 nM
ALGTTCYA (modifications not checked) [PSA.143 ALGTTCYA]	< 200 nM
GLPSIPVHPI (modifications not checked) [PSM.288 …]	< 200 nM
KLQCVDLHV (modifications not checked) [PSA.166 …]	< 200 nM
RMMNDQLMFL (modifications not checked) [PSM.662 …]	< 200 nM
VLAKELKFV (modifications not checked) [PAP.30 …]	< 200 nM
ALFDIESKV (modifications not checked) [PSM.711 …]	< 200 nM
LLFFWLDRSV (modifications not checked) [PAP.21 …]	< 200 nM
FLNESYKHEQV (modifications not checked) [PAP.92 …]	< 200 nM
FLRPRSLQCV (modifications not checked) [HuK2.165 …]	< 200 nM
VLAGGFFLL (modifications not checked) [PSM.27 …]	< 200 nM
LVLAGGFFL (modifications not checked) [PSM.26 …]	< 200 nM
FLTPKKLQCV (modifications not checked) [PSA.161 …]	< 200 nM
QLMFLERAFI (modifications not checked) [PSM.667 …]	< 200 nM
GMPEGDLVYV (modifications not checked) [PSM.168 …]	< 200 nM
LMLLRLSEPA (modifications not checked) [PSA.117 …]	< 200 nM
MLLRLSEPA (modifications not checked)	< 200 nM
IMYSAHDTTV (modifications not checked) [PAP.284 …]	< 200 nM

These binders were tested against HLA-A*0201 (human) (assay: competitive inhibition of 125I-labelled standard peptide binding to purified HLA, gel filtration). Conditions: not given.

Binder	binding affinity ratio (ratio to standard peptide)
IVIARYGKV (modifications not checked) [… (PSM, position 200)]	0.0001
KINCSGKIV (modifications not checked) [… (PSM, position 193)]	0.0002
KAWGEVKRQI (modifications not checked) [… (PSM, position 723)]	0.0001
KAENIKKFL (modifications not checked) [… (PSM, position 66)]	0.0002

Same assay, conditions: remark: other sources report otherwise

Binder	IC50	binding affinity ratio (ratio to standard peptide)
DLMLLRLSEPV (modifications not checked) [peptide 1419.13 … (HuK2.120.V11)]	50 nM	–
ITSWGPEPCAL (modifications not checked) [… (Kallikrein, position 226)]	–	0.0003

Source: patent US20070020327A1
